Laboratory results published in patent US20200024322A1 (Eli Lilly, published 2020).
Numbered stars: 1 amine (or outer) side, 2 acyl side, 3 side chain; on linkers, the order of the positions; unused ones are H or OH. Square brackets hold non-standard residues; d marks the D form. Side chains are listed from the residue outwards. Ends that are not written are not given here. * marks the point of attachment. C20 diacid = O=C(O)CCCCCCCCCCCCCCCCCCC(=O)*; C18 diacid = O=C(O)CCCCCCCCCCCCCCCCC(=O)*; γGlu = O=C(O)[C@H](CCC(=O)[*:2])N[*:1]; AEEA = NCCOCCOCC(=O)O; Aib = CC(C)(N)C(=O)O

Tests used:
[1] = target: T1, human GIP receptor (human, UniProt P48546 22-466); test: [125I]-GIP competition SPA, hGIPR membranes
T1 construct: whole, on cells; also called hGIPR; hGIP-R
T1 sequence (looked up): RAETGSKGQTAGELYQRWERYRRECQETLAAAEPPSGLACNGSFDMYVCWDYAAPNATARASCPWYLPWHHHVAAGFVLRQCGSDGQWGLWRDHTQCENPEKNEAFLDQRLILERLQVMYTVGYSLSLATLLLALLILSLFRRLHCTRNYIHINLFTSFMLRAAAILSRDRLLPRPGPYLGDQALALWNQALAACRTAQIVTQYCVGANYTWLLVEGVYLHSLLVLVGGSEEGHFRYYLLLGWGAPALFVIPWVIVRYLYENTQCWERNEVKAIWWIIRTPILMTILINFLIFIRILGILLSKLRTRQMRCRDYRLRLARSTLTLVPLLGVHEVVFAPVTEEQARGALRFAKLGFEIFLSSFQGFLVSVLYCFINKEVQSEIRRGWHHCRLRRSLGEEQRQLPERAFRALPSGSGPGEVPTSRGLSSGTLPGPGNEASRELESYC

[2] = target: T2, human GLP-1 receptor (human, UniProt P43220 24-463); test: [125I]-GLP-1 competition SPA, hGLP-1R membranes
T2 construct: whole, on cells; also called hGLP-1R; hGLP1R
Summary of the method: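 Competition binding in 25 mM HEPES pH 7.4, 2.5 mM CaCl₂, 1 mM MgCl₂, 0.1% bacitracin, 0.003% TWEEN-20, EDTA-free protease inhibitors. IC₅₀ from four-parameter nonlinear fit; Kᵢ given as geometric mean ± SEM, n = independent replicates on different days.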

[3] = target: T3, human glucagon receptor (human, UniProt P47871 26-477); test: [125I]-Gcg competition SPA, hGcgR membranes
T3 construct: whole, on cells; also called hGcgR; GcgR
T3 sequence (P47871 26-477): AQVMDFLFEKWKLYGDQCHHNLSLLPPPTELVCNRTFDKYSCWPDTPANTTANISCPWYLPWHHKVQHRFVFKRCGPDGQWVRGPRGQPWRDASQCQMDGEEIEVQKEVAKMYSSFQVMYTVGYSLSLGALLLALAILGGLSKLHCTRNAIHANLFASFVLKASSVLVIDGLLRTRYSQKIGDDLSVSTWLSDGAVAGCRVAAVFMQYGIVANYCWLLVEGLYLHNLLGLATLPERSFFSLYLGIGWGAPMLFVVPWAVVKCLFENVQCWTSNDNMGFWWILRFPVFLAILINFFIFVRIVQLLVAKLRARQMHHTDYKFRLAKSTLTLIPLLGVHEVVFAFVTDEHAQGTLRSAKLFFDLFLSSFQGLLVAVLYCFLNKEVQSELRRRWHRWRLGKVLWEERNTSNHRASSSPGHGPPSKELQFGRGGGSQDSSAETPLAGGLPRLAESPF

B1: Example 321 (peptide)
peptide: Y[Aib]EGTFTSDYSILLDKK([AEEA-AEEA-γGlu-C18 diacid])AQ[Aib]TFIEYLIEGGPSSG-NH2
modifications: N-terminus assumed
SMILES: CC[C@H](C)[C@H](NC(=O)[C@H](CC(C)C)NC(=O)[C@H](Cc1ccc(O)cc1)NC(=O)[C@H](CCC(=O)O)NC(=O)[C@@H](NC(=O)[C@H](Cc1ccccc1)NC(=O)[C@@H](NC(=O)C(C)(C)NC(=O)[C@H](CCC(N)=O)NC(=O)[C@H](C)NC(=O)[C@H](CCCCNC(=O)COCCOCCNC(=O)COCCOCCNC(=O)CC[C@H](NC(=O)CCCCCCCCCCCCCCCCC(=O)O)C(=O)O)NC(=O)[C@H](CCCCN)NC(=O)[C@H](CC(=O)O)NC(=O)[C@H](CC(C)C)NC(=O)[C@H](CC(C)C)NC(=O)[C@@H](NC(=O)[C@H](CO)NC(=O)[C@H](Cc1ccc(O)cc1)NC(=O)[C@H](CC(=O)O)NC(=O)[C@H](CO)NC(=O)[C@@H](NC(=O)[C@H](Cc1ccccc1)NC(=O)[C@@H](NC(=O)CNC(=O)[C@H](CCC(=O)O)NC(=O)C(C)(C)NC(=O)[C@@H](N)Cc1ccc(O)cc1)[C@@H](C)O)[C@@H](C)O)[C@@H](C)CC)[C@@H](C)O)[C@@H](C)CC)C(=O)N[C@@H](CCC(=O)O)C(=O)NCC(=O)NCC(=O)N1CCC[C@H]1C(=O)N[C@@H](CO)C(=O)N[C@@H](CO)C(=O)NCC(N)=O
B1 gave a Ki [1] of 0.064 nM, a Ki [2] of 4.2 nM and a Ki [3] of 770 nM.

B2: Example 322 (peptide)
peptide: Y[Aib]EGTFTSDYSILLDKK([AEEA-AEEA-γGlu-C18 diacid])AQ[Aib]HFIEYLIEGGPSSG-NH2
modifications: N-terminus assumed
SMILES: CC[C@H](C)[C@H](NC(=O)[C@H](CC(C)C)NC(=O)[C@H](Cc1ccc(O)cc1)NC(=O)[C@H](CCC(=O)O)NC(=O)[C@@H](NC(=O)[C@H](Cc1ccccc1)NC(=O)[C@H](Cc1c[nH]cn1)NC(=O)C(C)(C)NC(=O)[C@H](CCC(N)=O)NC(=O)[C@H](C)NC(=O)[C@H](CCCCNC(=O)COCCOCCNC(=O)COCCOCCNC(=O)CC[C@H](NC(=O)CCCCCCCCCCCCCCCCC(=O)O)C(=O)O)NC(=O)[C@H](CCCCN)NC(=O)[C@H](CC(=O)O)NC(=O)[C@H](CC(C)C)NC(=O)[C@H](CC(C)C)NC(=O)[C@@H](NC(=O)[C@H](CO)NC(=O)[C@H](Cc1ccc(O)cc1)NC(=O)[C@H](CC(=O)O)NC(=O)[C@H](CO)NC(=O)[C@@H](NC(=O)[C@H](Cc1ccccc1)NC(=O)[C@@H](NC(=O)CNC(=O)[C@H](CCC(=O)O)NC(=O)C(C)(C)NC(=O)[C@@H](N)Cc1ccc(O)cc1)[C@@H](C)O)[C@@H](C)O)[C@@H](C)CC)[C@@H](C)CC)C(=O)N[C@@H](CCC(=O)O)C(=O)NCC(=O)NCC(=O)N1CCC[C@H]1C(=O)N[C@@H](CO)C(=O)N[C@@H](CO)C(=O)NCC(N)=O
For B2, the Ki [1] was 0.175 nM, the Ki [2] was 2.31 nM and the Ki [3] was 1030 nM.

B3: Example 324 (peptide)
peptide: YXEGTFTSDYSIXLDKKAQXAFIEYLIAGGPSSGAPPPS
modifications: Aib2; αMeL13; K17((2-[2-(2-Amino-ethoxy)-ethoxy]-acetyl)2-(γ-Glu)-CO-(CH2)18-CO2H); Aib20; C-terminal NH2
B3 gave a Ki [1] of 0.0278 nM, a Ki [2] of 0.609 nM and a Ki [3] of 449 nM.

B4: Example 267 (peptide)
peptide: Y[Aib]EGTFTSDYSILLDKK([AEEA-AEEA-γGlu-C18 diacid])AQ[Aib]AFIEYLIEGG-NH2
modifications: N-terminus assumed
SMILES: CC[C@H](C)[C@H](NC(=O)[C@H](CC(C)C)NC(=O)[C@H](Cc1ccc(O)cc1)NC(=O)[C@H](CCC(=O)O)NC(=O)[C@@H](NC(=O)[C@H](Cc1ccccc1)NC(=O)[C@H](C)NC(=O)C(C)(C)NC(=O)[C@H](CCC(N)=O)NC(=O)[C@H](C)NC(=O)[C@H](CCCCNC(=O)COCCOCCNC(=O)COCCOCCNC(=O)CC[C@H](NC(=O)CCCCCCCCCCCCCCCCC(=O)O)C(=O)O)NC(=O)[C@H](CCCCN)NC(=O)[C@H](CC(=O)O)NC(=O)[C@H](CC(C)C)NC(=O)[C@H](CC(C)C)NC(=O)[C@@H](NC(=O)[C@H](CO)NC(=O)[C@H](Cc1ccc(O)cc1)NC(=O)[C@H](CC(=O)O)NC(=O)[C@H](CO)NC(=O)[C@@H](NC(=O)[C@H](Cc1ccccc1)NC(=O)[C@@H](NC(=O)CNC(=O)[C@H](CCC(=O)O)NC(=O)C(C)(C)NC(=O)[C@@H](N)Cc1ccc(O)cc1)[C@@H](C)O)[C@@H](C)O)[C@@H](C)CC)[C@@H](C)CC)C(=O)N[C@@H](CCC(=O)O)C(=O)NCC(=O)NCC(N)=O
For B4, the Ki [1] was 0.0628 nM, the Ki [2] was 1.57 nM and the Ki [3] was 349 nM.

B5: Example 273 (peptide)
peptide: Y[Aib]EGTFTSDYSILLDKK([AEEA-AEEA-γGlu-C18 diacid])AQ[Aib]AFIEYLIAGG-NH2
modifications: N-terminus assumed
SMILES: CC[C@H](C)[C@H](NC(=O)[C@H](CC(C)C)NC(=O)[C@H](Cc1ccc(O)cc1)NC(=O)[C@H](CCC(=O)O)NC(=O)[C@@H](NC(=O)[C@H](Cc1ccccc1)NC(=O)[C@H](C)NC(=O)C(C)(C)NC(=O)[C@H](CCC(N)=O)NC(=O)[C@H](C)NC(=O)[C@H](CCCCNC(=O)COCCOCCNC(=O)COCCOCCNC(=O)CC[C@H](NC(=O)CCCCCCCCCCCCCCCCC(=O)O)C(=O)O)NC(=O)[C@H](CCCCN)NC(=O)[C@H](CC(=O)O)NC(=O)[C@H](CC(C)C)NC(=O)[C@H](CC(C)C)NC(=O)[C@@H](NC(=O)[C@H](CO)NC(=O)[C@H](Cc1ccc(O)cc1)NC(=O)[C@H](CC(=O)O)NC(=O)[C@H](CO)NC(=O)[C@@H](NC(=O)[C@H](Cc1ccccc1)NC(=O)[C@@H](NC(=O)CNC(=O)[C@H](CCC(=O)O)NC(=O)C(C)(C)NC(=O)[C@@H](N)Cc1ccc(O)cc1)[C@@H](C)O)[C@@H](C)O)[C@@H](C)CC)[C@@H](C)CC)C(=O)N[C@@H](C)C(=O)NCC(=O)NCC(N)=O
B5 showed a Ki [1] of 0.0698 nM, a Ki [2] of 1.13 nM and a Ki [3] of 724 nM.

B6: Example 288 (peptide)
peptide: Y[Aib]EGTFTSDYSILLDKK([AEEA-AEEA-γGlu-C20 diacid])AQ[Aib]AFIEYLIAGGPSSGAPPPS-NH2
modifications: N-terminus assumed
SMILES: CC[C@H](C)[C@H](NC(=O)[C@H](CC(C)C)NC(=O)[C@H](Cc1ccc(O)cc1)NC(=O)[C@H](CCC(=O)O)NC(=O)[C@@H](NC(=O)[C@H](Cc1ccccc1)NC(=O)[C@H](C)NC(=O)C(C)(C)NC(=O)[C@H](CCC(N)=O)NC(=O)[C@H](C)NC(=O)[C@H](CCCCNC(=O)COCCOCCNC(=O)COCCOCCNC(=O)CC[C@H](NC(=O)CCCCCCCCCCCCCCCCCCC(=O)O)C(=O)O)NC(=O)[C@H](CCCCN)NC(=O)[C@H](CC(=O)O)NC(=O)[C@H](CC(C)C)NC(=O)[C@H](CC(C)C)NC(=O)[C@@H](NC(=O)[C@H](CO)NC(=O)[C@H](Cc1ccc(O)cc1)NC(=O)[C@H](CC(=O)O)NC(=O)[C@H](CO)NC(=O)[C@@H](NC(=O)[C@H](Cc1ccccc1)NC(=O)[C@@H](NC(=O)CNC(=O)[C@H](CCC(=O)O)NC(=O)C(C)(C)NC(=O)[C@@H](N)Cc1ccc(O)cc1)[C@@H](C)O)[C@@H](C)O)[C@@H](C)CC)[C@@H](C)CC)C(=O)N[C@@H](C)C(=O)NCC(=O)NCC(=O)N1CCC[C@H]1C(=O)N[C@@H](CO)C(=O)N[C@@H](CO)C(=O)NCC(=O)N[C@@H](C)C(=O)N1CCC[C@H]1C(=O)N1CCC[C@H]1C(=O)N1CCC[C@H]1C(=O)N[C@@H](CO)C(N)=O
notes: also called GG-709
B6 gave a Ki [1] of 0.058 nM, a Ki [2] of 1.6 nM and a Ki [3] of 345 nM.

F[Aib]EGTFTSDYSILLDKK([AEEA-AEEA-γGlu-C20 diacid])AQ[Aib]AFIEYLIEGGPSSGAPPPS-NH2 [Example 326] was tested, and the Ki [1] was 0.251 nM, the Ki [2] was 2.92 nM and the Ki [3] was 207 nM.
